Non-standard residues stand in square brackets, D forms with d. Primed or numbered codes have the meaning given here. No end group written: not given here. Nal″ = naphthylalanine; Aib = CC(C)(N)C(=O)O
T1: lecithin:cholesterol acyltransferase (LCAT), purified from human plasma (human, UniProt P04180 25-440)
T1 sequence (looked up): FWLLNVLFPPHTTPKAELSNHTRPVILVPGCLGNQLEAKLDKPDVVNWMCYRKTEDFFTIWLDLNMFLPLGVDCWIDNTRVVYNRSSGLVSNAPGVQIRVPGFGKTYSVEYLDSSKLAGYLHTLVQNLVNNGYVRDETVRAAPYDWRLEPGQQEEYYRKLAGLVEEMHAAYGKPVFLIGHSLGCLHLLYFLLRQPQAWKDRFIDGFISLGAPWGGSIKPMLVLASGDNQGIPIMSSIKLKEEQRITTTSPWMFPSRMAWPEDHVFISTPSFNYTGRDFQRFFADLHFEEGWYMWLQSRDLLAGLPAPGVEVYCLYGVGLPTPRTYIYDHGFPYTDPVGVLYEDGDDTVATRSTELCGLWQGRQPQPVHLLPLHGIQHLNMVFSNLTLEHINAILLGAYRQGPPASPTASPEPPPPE


target: T1, lecithin:cholesterol acyltransferase …; assay: cell-based or functional assay

Binder	ACTIVITY (%) LCAT
PVLDEFREKLNEELEWLKQKLK [peptide 122]	0%
PVLDEFREKLNE[Aib]MEALKQKLK [peptide 114]	0%
PVLDEFREKLNEPLEALKQKLK [peptide 113]	0%
PVLDLFRELLNELLE[Nal″]LKQKLK [peptide 1]	120%
PVLDEFREKLWE[Aib]WEALKQKLK [peptide 111]	0%
PVLDLFRELLNELLELLKQKLK [peptide 127]	47%
PVLDEFREKLNE[Aib]SEALKQKLK [peptide 112]	0%
PELDEFREKLNE[Aib]LEALKQKLK [peptide 117]	0%
PVLDEFREKLNEELEA[Aib]KQKLK [peptide 119]	0%
PVLDEFREKLNEELE[Aib]LKQKLK [peptide 120]	0%
PVLDLFKELLQELLEALKQKLK [peptide 11]	72%
PVLDEFREKLNE[Aib][Aib]EALKQKLK [peptide 110]	0%
KLKQKLAELLENLLERFLDLVP (all D-amino acids (lower case)) [peptide 107]	0%
PVLDEFREKLNE[Aib]LEALEQKLK [peptide 118]	0%
PVLDLFREKLNEELEALKQKLK [peptide 106]	0%
PHLDEFREKLNE[Aib]LEALKQKLK [peptide 116]	0%
PLLNELLEALKQKLK [peptide 104]	1%
[dP]VLELFENLLERLLDALQKKLK [peptide 144]	111%
PVLDEFRELLNEELEALKQKLK [peptide 103]	1%
PAADAFREAANEAAEAAKQKAK [peptide 105]	1%
PVLDEFREKLNERLEALKQKLK [peptide 109]	0%
PVLDLFRWLLNE[Aib]LEALKQKLK [peptide 108]	0%
PVLDEFREKLNEELEALWQKLK [peptide 121]	0%
PVLDLFRELLNELLEAGKQKLK [peptide 12]	70%
PKLDEFREKLNE[Aib]LEALKQKLK [peptide 115]	0%
PVLDLFRELLNELLEA[Nal″]KQKLK [peptide 10]	79%

From patent publication US20050080013A1 (Pfizer, published 2005)
